Here are results for one substance from patent US11447550B2, “Peptides for molecular detection of PD-L1” (THE CURATORS OF THE UNIVERSITY OF MISSOURI, priority 2016, dated 2022).

Ends that are not written are not given here.

The assay addresses PD-L1 (Homo sapiens, UniProt Q9NZQ7). In words: Immunohistochemistry using Cy5-peptide (fluorescence) on FFPE tissues and lung cancer TMA. The format is binding. Set-up: Seven PD-L1 expressing NSCLC patient tissues were obtained from the MU OneHealth tissue bank; tissue MU OneHealth tissue bank; U.S. Biomax (TMA) LC1923; host or cells: FFPE placenta, seven NSCLC patient tissues, 192-case lung cancer tissue microarray, four Hodgkin's lymphoma cases. The source says: PD-L1 expression was investigated in the same seven FFPE tissues and 192 lung cancer cases on a microarray using our peptide conjugated with Cy5 fluorophore. A lung cancer tissue microarray (TMA) was purchased from U.S. Biomax that contains 192 separate cases of various types of lung cancers (LC1923, biomax.us). In addition, seven NSCLC patient tissues were obtained from the Mizzou OneHealth tissue bank and de-identified according to IRB protocols. Paraffin-embedded tissue slides were baked overnight, then de-waxed and rehydrated according to standard protocols. Tissue sections were then subjected to antigen retrieval in EDTA at 95° C. for 20 minutes in EDTA ([…]). The solution was cooled for an additional 20 minutes on the bench top prior to buffer rinse. Tissues were then incubated with 15 μM Cy5-conjugated peptide for 2 hours in a humid chamber in the dark at RT. After 2 hours, slides were washed with buffer. The slides were then mounted using nucleus-specific DAPI counterstain and cover slipped. Slides were then imaged using fluorescence microscopy on a Leica DM5500 and compared to the same sections which had been stained with the Ventana antibody. For fluorescent analysis, DAPI channels and Cy5 channels were overlaid to image cell nuclei and PD-L1 expression, respectively.
Staining of the placenta and seven selected NSCLC patient tissues was again compared using the SP263 antibody and RK-10-Cy5 which was conjugated with a Cy5 fluorophore (FIG. 16). To stain with the fluorescent PD-L1 peptide, antigen retrieval was performed and tissue slides were treated with 15 μM fluorescent peptide in a dark, humid chamber for 2 hours, washed with buffer, then counter-stained and mounted with DAPI nucleus stain. Peptide-stained slides were imaged on a Leica DM5500 using channels specific for DAPI or Cy5, and channels were overlaid to examine PD-L1 expression. To confirm the data from the IHC stained tissues, the same seven patient tissues A-G were stained with RK-10-Cy5 (FIG. 10). […]

Sequence of PD-L1 (Q9NZQ7 19-290): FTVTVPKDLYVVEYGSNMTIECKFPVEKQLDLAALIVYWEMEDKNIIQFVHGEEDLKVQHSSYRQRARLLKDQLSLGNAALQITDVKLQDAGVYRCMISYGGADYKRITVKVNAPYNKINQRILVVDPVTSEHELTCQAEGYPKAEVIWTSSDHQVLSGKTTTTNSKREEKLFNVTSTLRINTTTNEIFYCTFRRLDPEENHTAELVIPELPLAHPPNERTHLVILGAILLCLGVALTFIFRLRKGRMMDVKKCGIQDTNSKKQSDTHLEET

Turning to “Cy5-GSGSGSTYLCGAISLAPKAQIKESL [RK-10-Cy5]”, the “tumor staining in lung cancer tissue microarray” value (192 lung cancer cases (U.S. Biomax TMA), majority of cases, FIG. 11 panels d, e, f) was “consistent, specific staining in tumor cells and immune infiltrate”. Under “four Hodgkin's lymphoma patient samples, FIG. 13”, the “staining of Reed-Sternberg cells” value is “showed PD-L1 staining”. Besides, the “fluorescent tumor staining in NSCLC patient tissues” value (seven NSCLC patient tissues A-G, 15 μM fluorescent peptide, 2 hours, FIG. 10) is “stained many areas of tumor that the SP263 antibody did not”.
